Measured values from patent US20170119790A1, “Agents, Uses and Methods” (CYTOGUIDE A/S, priority 2009, published 2017).

What was measured:
[1] = target: T1, CD163 receptor on surface of human macrophages (Homo sapiens, UniProt Q86VB7); test: Cellular binding and uptake of fluorescently labeled CD163 antibodies in monocyte-derived macrophages; assay type: cell-based
T1 construct: Freshly drawn peripheral whole blood samples or PBMC; endogenous in cells; host or cells: human peripheral blood monocytes, blood dendritic cells, monocyte-derived macrophages (healthy donors, buffy coats)
T1 sequence (Q86VB7 42-1156): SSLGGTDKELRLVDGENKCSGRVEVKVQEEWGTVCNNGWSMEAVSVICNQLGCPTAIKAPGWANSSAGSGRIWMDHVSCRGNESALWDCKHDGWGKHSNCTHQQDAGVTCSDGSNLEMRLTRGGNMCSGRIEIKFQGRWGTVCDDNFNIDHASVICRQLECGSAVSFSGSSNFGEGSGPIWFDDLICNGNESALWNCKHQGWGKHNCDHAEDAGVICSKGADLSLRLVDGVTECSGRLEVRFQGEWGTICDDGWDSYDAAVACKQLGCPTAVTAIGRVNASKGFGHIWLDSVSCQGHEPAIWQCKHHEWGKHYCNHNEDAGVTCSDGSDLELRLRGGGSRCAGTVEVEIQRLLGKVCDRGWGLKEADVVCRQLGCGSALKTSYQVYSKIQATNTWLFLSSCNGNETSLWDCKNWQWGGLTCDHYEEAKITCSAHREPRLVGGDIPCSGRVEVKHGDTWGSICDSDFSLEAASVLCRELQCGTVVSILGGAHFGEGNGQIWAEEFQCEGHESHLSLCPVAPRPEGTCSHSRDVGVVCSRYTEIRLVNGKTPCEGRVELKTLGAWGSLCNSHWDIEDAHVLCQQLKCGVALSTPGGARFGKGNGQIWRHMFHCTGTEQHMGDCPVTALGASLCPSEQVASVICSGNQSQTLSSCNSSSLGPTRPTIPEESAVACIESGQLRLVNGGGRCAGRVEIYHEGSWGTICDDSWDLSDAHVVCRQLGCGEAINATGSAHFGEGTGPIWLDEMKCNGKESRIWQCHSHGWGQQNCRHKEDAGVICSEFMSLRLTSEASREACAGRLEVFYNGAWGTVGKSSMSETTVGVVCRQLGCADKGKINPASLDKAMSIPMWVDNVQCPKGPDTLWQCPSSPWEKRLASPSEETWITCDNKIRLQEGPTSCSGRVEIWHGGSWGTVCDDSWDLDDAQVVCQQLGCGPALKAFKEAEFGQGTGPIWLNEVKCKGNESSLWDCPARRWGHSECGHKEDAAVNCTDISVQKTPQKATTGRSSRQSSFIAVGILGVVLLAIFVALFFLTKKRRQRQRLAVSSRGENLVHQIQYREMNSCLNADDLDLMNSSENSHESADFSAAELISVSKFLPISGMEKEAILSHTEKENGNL
Description: Monocytes were isolated from PBMC by negative selection using magnetic beads from Dynal (Dynabeads® MyPure™ Monocyte Kit 2; Invitrogen A/S, Taastrup, Denmark) according to instructions provided by the manufacturer. Monocyte preparations were more than 95% (CD14^+) pure determined by flow cytometry. The isolated cells were washed twice with phosphate-buffered saline. Monocyte-derived macrophages (MDMs) were prepared by cell culture of monocytes (approximately 1×10^7 cells) for 4 days in 5% CO2 and 37° C. in RPMI 1640 media (RPMI 1640+25 mM HEPES+I-glutamine) (Invitrogen Corporation, Carlsbad, Calif., USA) with 20% FCS containing 100 ng/ml of M-CSF. MDMs were then detached from the flask by incubation with cell dissociation buffer (Invitrogen A/S, Taastrup, Denmark) for 30 minutes at 4 °C, then flushed, and scraped. The cells were then cultured for 24 hours in RPMI 1640 media (RPMI 1640+25 mM HEPES+I-glutamine) (Invitrogen Corporation, Carlsbad, Calif., USA) supplemented with 20% FCS containing 100 ng/ml of M-CSF at 37° C. in 95% air and 5% CO2 in Lab-Tek™ Chamber Slides (Thermo Fisher Scientific, Roskilde, Denmark). 200 nM dexamethasone (Merck KGaA, Darmstadt, Germany) was added during culture to increase CD163 expression. Stably transfected Chinese hamster ovary (CHO) cells expressing the full-length human CD163, as described above, were cultured in serum-free CHO medium (HyQ-CCM, HyClone, Logan, Utah) containing 300 μg/ml Hygromycin B, as previously described (2).
MDMs or CHO cells were washed with 4° C. cold D-PBS, pH 7.4, containing 1% BSA in Lab-Tek™ Chamber Slides (Thermo Fisher Scientific, Roskilde, Denmark). The cells were then incubated with 10 μg/ml different clones of anti-CD163 for one hour at 4° C. and then washed three times with D-PBS, pH 7.4, with 1% BSA. […] Fluorescence was visualized using a Zeiss Axiovert 200M microscope (Carl Zeiss GmbH, Jena, Germany) with an ×100 oil-immersion objective. […] Alternatively, immunostained cells were analyzed by confocal immunofluorescence microscopy using a Zeiss LSM-510 confocal microscope (Carl Zeiss GmbH, Jena, Germany). […]

[2] = target: T2, CD163 on peripheral blood dendritic cells (Homo sapiens, UniProt Q86VB7); test: Flow cytometry of CD163 expression on peripheral blood dendritic cells; assay type: cell-based
T2 construct: Freshly drawn peripheral whole blood samples or PBMC; endogenous in cells; host or cells: human peripheral blood monocytes, blood dendritic cells, monocyte-derived macrophages (healthy donors, buffy coats)
T2 sequence (Q86VB7 42-1156): as above
Text: Freshly drawn peripheral whole blood samples (approx. 3×10^6 cells) were stained with isotype-matched control antibody (Mouse IgG1 PE, k isotype control, MOPC-21, BD Pharmingen™, San Diego, Calif., USA) or a relevant antibody (anti-CD3 FITC, UCHT1, BD Biosciences, San Diego, Calif., USA; anti-CD11c FITC, KB90, DAKO A/S, Glostrup, Denmark; anti-CD14 FITC, RM052, 10Tests®, Beckman and Coulter, Marseille, France; anti-CD16 FITC, 3G8, BD Biosciences, San Diego, Calif., USA; anti-CD19 FITC, SJ25C1, BD Biosciences, San Diego, Calif., USA; anti-CD20 FITC, CAT 13.6E12, Diatec.com A/S, Oslo, Norway; anti-CD56 FITC, NCAM16.2, BD Biosciences, San Diego, Calif., USA; anti-CD91 FITC, A2MR-a2, BD Biosciences, San Diego, Calif.; anti-HLA-DR FITC, EDU-1, Diatec.com A/S, Oslo, Norway; anti-CD163 PE, MAC2-158, IQ Products, Groningen, The Netherlands; anti-CD163 PE, GHI/61, BD Biosciences, CA, USA; anti-ILT3/CD85k PE-Cy5, ZM3.8, IOTests®, Beckman and Coulter, Marseille, France; anti-HLA-DR PerCP, L234, BD Biosciences, San Diego, Calif.; anti-CD4 APC, EDU-2, Diatec.com A/S, Oslo, Norway; anti-CD14 APC, 18D11, Diatec.com A/S, Oslo, Norway) for 15 minutes at room temperature in the dark. […] For CD163 density quantitation, flow cytometric estimation of antibodies bound/cell (ABCs) was performed using Quantibrite PE beads (Becton Dickinson, San Jose, Calif., USA) as recommended by the manufacturer. […]

B1: MAC2-158: anti-human CD163 murine mAb, binds SRCR domain 1, IQ Products; VH SEQ ID NO: 1, VL SEQ ID NO: 2 (antibody, V domains shown)
VH: DVQLQESGPGLVKPSQSLSLTCTVTGYSITSDYAWNWIRQFPGNKLEWMGYITYSGITNYNPSLKSQISITRDTSKNQFFLQLNSVTTEDTATYYCVSGTYYFDYWGQGTTLTVSS
VL: SVVMTQTPKSLLISIGDRVTITCKASQSVSSDVAWFQQKPGQSPKPLIYYASNRYTGVPDRFTGSGYGTDFTFTISSVQAEDLAVYFCGQDYTSPRTFGGGTKLEIKRA
modifications: Mac2-158 VH; Mac2-158 VL
binding and uptake ([1]; 0 or 30 minutes, FIG. 6): best binding and uptake
intensity of intracellular staining ([1]; after incubation for 30 min): most prominent
cell surface staining ([1]; immunofluorescence, 0 min, macrophages stimulated with 200 nM dexamethasone): pronounced cell surface staining
fraction of peripheral blood dendritic cells recognized (CD163 expressing) ([2]; CD14-ILT3+HLA-DR+ cells, whole blood): 32.3%
MFI, reflecting the amount of CD163 receptors per cell ([2]; peripheral blood dendritic cells): 107.5
